From US20200347103A1

Biological target: purified folded MHC-complex (Example 34)
Test: sandwich ELISA: W6/32 coated, detection with HRP-conjugated rabbit anti-β2m

W6/32 mouse-anti-HLA-ABC antibody (Dako M0736)
OD450 of wells with MHC complex relative to wells with the negative control β2m: 6 fold
